US20170275366A1 (Pfizer, published 2017)

B1: MR1-V3 CAR (other)
chain: QVQLQQSGGGLVKPGASLKLSCVTSGFTFRKFGMSWVRQTSDKRLEWVASISTGGYNTYYSDNVKGRFTISRENAKNTLYLQMSSLKSEDTALYYCTRGYSSTSYAMDYWGQGTTVTVGGGGSGGGGSGGGGSDIELTQSPASLSVATGEKVTIRCMTSTDIDDDMNWYQQKPGEPPKFLISEGNTLRPGVPSRFSSSGTGTDFVFTIENTLSEDVGDYYCLQSFNVPLTFGDGTKLEKALTTTPAPRPPTPAPTIASQPLSLRPEACRPAAGGAVHTRGLDFACDIYIWAPLAGTCGVLLLSLVITLYCKRGRKKLLYIFKQPFMRPVQTTQEEDGCSCRFPEEEEGGCELRVKFSRSADAPAYQQGQNQLYNELNLGRREEYDVLDKRRGRDPEMGGKPRRKNPQEGLYNELQKDKMAEAYSEIGMKGERRRGKGHDGLYQGLSTATKDTYDALHMQALPPR
notes: Chimeric antigen receptor on the surface of primary T cells; It has the MR1 scFv (VH, (G4S)3 linker, VL), CD8 alpha hinge, CD8 alpha TM, 4-1BB and CD3 zeta; also called 26
B2: 139-V5 CAR (other)
chain: DIQMTQSPSSLSASVGDRVTITCRASQGIRNNLAWYQQKPGKAPKRLIYAASNLQSGVPSRFTGSGSGTEFTLIVSSLQPEDFATYYCLQHHSYPLTSGGGTKVEIKGGGGSGGGGSGGGGSEVQVLESGGGLVQPGGSLRLSCAASGFTFSSYAMSWVRQAPGKGLEWVSAISGSGGSTNYADSVKGRFTISRDNSKNTLYLQMNSLRAEDTAVYYCAGSSGWSEYWGQGTLVTVSSEPKSPDKTHTCPPCPAPPVAGPSVFLFPPKPKDTLMIARTPEVTCVVVDVSHEDPEVKFNWYVDGVEVHNAKTKPREEQYNSTYRVVSVLTVLHQDWLNGKEYKCKVSNKALPAPIEKTISKAKGQPREPQVYTLPPSRDELTKNQVSLTCLVKGFYPSDIAVEWESNGQPENNYKTTPPVLDSDGSFFLYSKLTVDKSRWQQGNVFSCSVMHEALHNHYTQKSLSLSPGKKDPKIYIWAPLAGTCGVLLLSLVITLYCKRGRKKLLYIFKQPFMRPVQTTQEEDGCSCRFPEEEEGGCELRVKFSRSADAPAYQQGQNQLYNELNLGRREEYDVLDKRRGRDPEMGGKPRRKNPQEGLYNELQKDKMAEAYSEIGMKGERRRGKGHDGLYQGLSTATKDTYDALHMQALPPR
notes: Chimeric antigen receptor on the surface of primary T cells; also called CARs 139-V5; 25
B3: MR1-V5 CAR (other)
chain: QVQLQQSGGGLVKPGASLKLSCVTSGFTFRKFGMSWVRQTSDKRLEWVASISTGGYNTYYSDNVKGRFTISRENAKNTLYLQMSSLKSEDTALYYCTRGYSSTSYAMDYWGQGTTVTVGGGGSGGGGSGGGGSDIELTQSPASLSVATGEKVTIRCMTSTDIDDDMNWYQQKPGEPPKFLISEGNTLRPGVPSRFSSSGTGTDFVFTIENTLSEDVGDYYCLQSFNVPLTFGDGTKLEKALEPKSPDKTHTCPPCPAPPVAGPSVFLFPPKPKDTLMIARTPEVTCVVVDVSHEDPEVKFNWYVDGVEVHNAKTKPREEQYNSTYRVVSVLTVLHQDWLNGKEYKCKVSNKALPAPIEKTISKAKGQPREPQVYTLPPSRDELTKNQVSLTCLVKGFYPSDIAVEWESNGQPENNYKTTPPVLDSDGSFFLYSKLTVDKSRWQQGNVFSCSVMHEALHNHYTQKSLSLSPGKKDPKIYIWAPLAGTCGVLLLSLVITLYCKRGRKKLLYIFKQPFMRPVQTTQEEDGCSCRFPEEEEGGCELRVKFSRSADAPAYQQGQNQLYNELNLGRREEYDVLDKRRGRDPEMGGKPRRKNPQEGLYNELQKDKMAEAYSEIGMKGERRRGKGHDGLYQGLSTATKDTYDALHMQALPPR
notes: Chimeric antigen receptor on the surface of primary T cells; It has the MR1 scFv, IgG1 hinge, CD8 alpha TM, 4-1BB and CD3 zeta; also called 27
B4: 139-V3 CAR (other)
chain: DIQMTQSPSSLSASVGDRVTITCRASQGIRNNLAWYQQKPGKAPKRLIYAASNLQSGVPSRFTGSGSGTEFTLIVSSLQPEDFATYYCLQHHSYPLTSGGGTKVEIKGGGGSGGGGSGGGGSEVQVLESGGGLVQPGGSLRLSCAASGFTFSSYAMSWVRQAPGKGLEWVSAISGSGGSTNYADSVKGRFTISRDNSKNTLYLQMNSLRAEDTAVYYCAGSSGWSEYWGQGTLVTVSSTTTPAPRPPTPAPTIASQPLSLRPEACRPAAGGAVHTRGLDFACDIYIWAPLAGTCGVLLLSLVITLYCKRGRKKLLYIFKQPFMRPVQTTQEEDGCSCRFPEEEEGGCELRVKFSRSADAPAYQQGQNQLYNELNLGRREEYDVLDKRRGRDPEMGGKPRRKNPQEGLYNELQKDKMAEAYSEIGMKGERRRGKGHDGLYQGLSTATKDTYDALHMQALPPR
notes: Chimeric antigen receptor on the surface of primary T cells (mRNA transfection); also called CARs 139-V3; 24

Molecular target: T1, recombinant protein consisting of the extracellular domain of the human EGFRVIII protein fused with a murine … (human; murine, UniProt P00533 25-645)
T1 construct: extracellular domain; It is described in the general methods as the reagent for detecting CAR on T cells by flow cytometry; also called EGFRvIII-mouse Fc detection reagent; not shown: murine IgG1 Fc fragment
Experiment: flow cytometry of CAR on primary T cells; by the general methods detected through binding of EGFRvIII ECD-mouse IgG1 Fc and a PE anti-mouse Fc antibody
Description: Transduction of T-cells with recombinant lentiviral vectors expression the CAR was carried out three days after T-cell purification/activation. Lentiviral vectors produced by Vectalys SA (Toulouse, France) by transfection of genomic and helper plasmids in HEK-293 cells may be used. Transductions were carried out at a multiplicity of infection of 5. CAR detection at the surface of T-cells is performed using a recombinant protein consisting on the extracellular domain of the human […] protein fused together with a murine IgG1 Fc fragment (produced by LakePharma). Binding of this protein to the CAR molecule is detected with a PE-conjugated secondary antibody (Jackson lmmunoresearch) targeting the mouse Fc portion of the protein, and analyzed by flow cytometry.

Does B1 bind?
Result: binds

Does B2 bind?
Result: binds

Does B3 bind?
Result: binds

Does B4 bind?
Result: binds
